The labels stand for the following.
B2: CD40bp fused to the activation domain of GAL4 (other, not shown: large carriers)
chain: MESSKKMDSPGALQTNPPLKLHTDRSAGTPVFVPEQGGYKEKFVKTVEDKYKCEKCHLVLCSPKQTECGHRFCESCMAALLSSSSPKCTACQESIVKDKVFKDNCCKREILALQIYCRNESRGCAEQLMLGHLVHLKNDCHFEELPCVRPDCKEKVLRKDLRDHVEKACKYREATCSHCKSQVPMIALQKHEDTDCPCVVVSCPHKCSVQTLLRSELSAHLSECVNAPSTCSFKRYGCVFQGTNQQIKAHEASSAVQHVNLLKEWSNSLEKKVSLLQNESVEKNKSIQSLHNQICSFEIEIERQKEMLRNNESKILHLQRVIDSQAEKLKELDKEIRPFRQNWEEADSMKSSVESLQNRVTELESVDKSAGQVARNTGLLESQLSRHDQMLSVHDIRLADMDLGFQVLETASYNGVLIWKIRDYKRRKQEAVMGKTLSLYSQPFYTGYFGYKMCARVYLNGDGMGKGTHLSLFFVIMRGEYDALLPWPFKQKVTLMLMDQGSSRRHLGDAFKPDPNSSSFKKPTGEMNIASGCPVFVAQTVLENGTYIKDDTIFIKVIVDTSDLPDP
notes: Prey from a human B-cell cDNA library; also called CD40bp (yeast prey, pACT)

The target of assay [1] is [35S]methionine-labeled luciferase protein (UniProt P08659 1-550 = luciferase, limits assumed, [35S]methionine label). The assay is described as follows: GST pull-down of in vitro translated 35S-labeled protein, autoradiography. The procedure:
GST Fusion Protein Expression and In Vitro Binding Assay—Native (CD40T) and mutant (CD40A) CD40 sequences used in the construction of the yeast bait vectors were excised and subcloned into the glutathione S-transferase ("GST") fusion protein vector pGSTag (as described in Ron et al. (1992) *BioTechniques* 13:866-869) and transformed into the *Escherichia coli* strain BL21 […] pLysS (as described in Studier et al. (1991) *J. Mol. Bio.* 219:37-44). GST and GST fusion proteins were prepared using published procedures of Studier et al. (1991) supra, and the recombinant proteins were immobilized onto glutathione-agarose beads at a concentration of about 8 mg/ml (as described in Harper et al. (1993) supra).
Figure 2: FIGS. 2A and 2B show the interaction of in vitro translated CD40bp with GST fusion proteins. [^35S]Methionine-labeled CD40bp or luciferase protein as control was incubated with GST alone, GSTCD40T (native CD40 cytoplasmic domain), or GSTCD40A (mutant CD40 cytoplasmic domain $Thr^234 \rightarrow Ala$). Following incubation and washing, GST beads were boiled in SDS-sample buffer and resolved on a 10% acrylamide gel, and bound protein was visualized by autoradiography.

Assay [2] has as its target yeast Ser-Thr kinase SNF1 fused to the DNA-binding domain of GAL4 (yeast, UniProt P04386 1-147; P06782 1-633, limits assumed). The assay is described as follows: yeast two-hybrid cotransformation, beta-galactosidase filter assay. From the text: (§1) Yeast Two-hybrid Screen—Using a modification of the method of Harper et al. (1993) *Cell* 75:805-816, a hybrid gene encoding the GAL4 DNA-binding domain (amino acids 1-147), hemagglutinin ("HA") epitope tag, and CD40 cytoplasmic region (amino acids 216-279) was constructed in the yeast bait vector pAS1CYH2. This construct was designated GAL4CD40, and expression of the fusion protein was confirmed by anti-HA immunoblotting. This bait plasmid was cotransformed with a human B-cell cDNA expression library (prey) fused to the activation domain of GAL4 in the pACT plasmid. Interaction between bait- and prey-encoded genes in the Y190 yeast strain reconstitutes GAL4 as an active transcriptional complex, allowing growth in the absence of histidine and activation of the β-galactosidase reporter gene. Thirty-six of the 10^6 transformants screened grew in the absence of histidine and had detectable β-galactosidase staining within 10 minutes of incubation with the chromogenic substrate 5-bromo-4-chloro-3-indolyl β-D-galactoside. […] Cotransformation assays were repeated in the yeast Y190 strain, where CD40bp fused to the activation domain of GAL4 was cotransformed with native CD40 (pCD40T) or the indicated heterologous baits expressed as fusions with the DNA-binding domain of GAL4. […]

Assay [3] deals with B2. The assay is described as above.
Text: as §1

These results are taken from US7544481 (REGENTS OF THE UNIVERSITY OF MICHIGAN, dated 2009).

Sequence of [35S]methionine-labeled luciferase protein (P08659 whole entry, the tested form may be a part): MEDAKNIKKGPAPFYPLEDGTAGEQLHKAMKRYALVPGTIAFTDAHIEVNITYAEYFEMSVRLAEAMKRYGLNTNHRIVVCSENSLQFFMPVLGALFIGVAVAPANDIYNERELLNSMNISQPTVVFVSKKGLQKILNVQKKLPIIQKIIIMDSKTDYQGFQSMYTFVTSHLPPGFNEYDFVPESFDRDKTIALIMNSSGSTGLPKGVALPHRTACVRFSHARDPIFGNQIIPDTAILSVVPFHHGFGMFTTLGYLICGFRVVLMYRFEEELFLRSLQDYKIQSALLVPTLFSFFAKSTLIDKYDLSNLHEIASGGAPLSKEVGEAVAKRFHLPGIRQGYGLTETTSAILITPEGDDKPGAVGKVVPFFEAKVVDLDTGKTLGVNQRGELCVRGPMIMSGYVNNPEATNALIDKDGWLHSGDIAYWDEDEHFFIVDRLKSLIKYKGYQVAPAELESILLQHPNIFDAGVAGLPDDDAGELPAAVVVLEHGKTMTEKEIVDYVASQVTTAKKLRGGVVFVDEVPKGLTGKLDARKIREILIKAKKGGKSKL

B1: GSTCD40T (GST fused to the native CD40 cytoplasmic domain) (other, human, UniProt P25942 216-277, looked up)
chain: KKVAKKPTNKAPHPKQEPQEINFPDDLPGSNTAAPVQETLHGCQPVTQEDGKESRISVQERQ
notes: range 216-279; Immobilized on glutathione-agarose beads; also called native CD40 (GSTCD40T); not shown: glutathione S-transferase of the vector pGSTag
For the molecule B1, in assay [1], the binding result is “no binding”.

For the molecule B2, the binding result in assay [2] is reported as “no binding”.

B3: cytoplasmic domain of the p55 TNF receptor (amino acids 206-426) fused to the DNA-binding domain of GAL4 (other, UniProt P04386 1-147, looked up)
chain: MKLLSSIEQACDICRLKKLKCSKEKPKCAKCLKNNWECRYSPKTKRSPLTRAHLTEVESRLERLEQLFLLIFPREDLDMILKMDSLQDIKALLTGLFVQDNVNKDAVTDRLASVETDMPLTLRQHRISATSSSEESSNKGQRQLTVSRYQRWKSKLYSIVCGKSTPEKEGELEGTTTKPLAPNPSFSPTPGFTPTLGFSPVPSSTFTSSSTYTPGDCPNFAAPRREVAPPYQGADPILATALASDPIPNPLQKWEDSAHKPQSLDTDDPATLYAVVENVPPLRWKEFVRRLGLSDHEIDRLELQNGRCLREAQYSMLATWRRRTPRREATLELLGRVLRDMDLLGCLEDIEEALCGPAALPPAPSLLR
notes: The numbering probably counts on the mature receptor; also called pTNFR
In the case of B3, the binding result in assay [3] was “no binding”.
